The results in this text go back to publication PMC4176381.

This series deals with CSL (RBPJ) (Mus musculus) (UniProt P31266). Kind of series: ITC. The note with it: text: measurable, albeit weak, binding; ITC: 50 mM sodium phosphate pH 6.5, 150 mM NaCl, 10 C (10 uM CSL in cell, 100 uM DNA in syringe). EMSA: 150 mM KCl, 50 mM Tris pH 7.4, 1 mM DTT, 2% polyvinyl …. (In EMSA bound probe runs differently from free probe, usually more slowly.)
Chain of CSL (RBPJ) (Mus musculus) (P31266 53-474): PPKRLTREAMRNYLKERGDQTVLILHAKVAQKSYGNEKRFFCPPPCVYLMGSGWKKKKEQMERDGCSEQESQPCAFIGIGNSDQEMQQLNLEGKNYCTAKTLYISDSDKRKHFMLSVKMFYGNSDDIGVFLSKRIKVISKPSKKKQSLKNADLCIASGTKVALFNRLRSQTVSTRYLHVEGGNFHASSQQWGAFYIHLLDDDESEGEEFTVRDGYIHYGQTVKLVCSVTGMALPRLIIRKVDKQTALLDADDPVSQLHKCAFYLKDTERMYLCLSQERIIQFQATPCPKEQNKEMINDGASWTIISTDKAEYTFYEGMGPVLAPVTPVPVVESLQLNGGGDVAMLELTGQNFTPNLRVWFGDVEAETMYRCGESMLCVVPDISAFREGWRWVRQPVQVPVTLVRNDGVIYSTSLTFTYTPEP

As for ITC duplex CGTGAAAA, the Kd – broadly, the free concentration of one partner at which half of the binding sites on the other are occupied at equilibrium, for simple one-to-one binding – was more than 50 µM.
